Data from patent US11780927B2, “Anti-CD40 antibodies for use in prevention of graft rejection” (NOVARTIS AG, priority 2018, dated 2023).
Where “and” joins values, the source holds several entries; their conditions need not be identical. Identical values can stand only once.

Columns and labels:
CD20pos B cells = test: In vitro B cell depletion in human whole blood; assay type: cell-based; details: 72 hours; Rituximab 50 μg/ml, CFZ533 dose titration
Protocol: See supplementary material for detailed methods. Briefly, the ability of CFZ533 to mediated depletion of CD20^pos B cells was monitored in human whole blood over a period of three days in comparison to the B cell depleting antibody Rituximab. For CDC, CFZ533 or Rituximab were incubated with RAJI B cells in the presence or absence of rabbit complement and cell lysis was assessed by luminescence.
B cells numbers were determined based on CD45pos and CD19pos events falling within lymphocyte FSC (forward-scattered light)/SSC (side-scattered light) gate. Results for individual antibody concentrations were calculated as percent remaining B cells with reference to untreated samples and graphed as a function of log-transformed antibody concentration (adjusted to 100% and shown as a dotted line). Data represent the mean and SD of eight independent donors. […] Concentration dependent killing of the Raji cells was analyzed after 2 hours, where the viability of the cells was measured by determination of the ATP concentration in each well using luciferase. Results are presented as isotype-control normalized relative luciferase units (RLU) as a function of log-transformed antibody concentration.

recombinant human CD40 = recombinant human CD40 (Homo sapiens, UniProt P25942); test: Surface plasmon resonance analysis of affinity for CD40; assay type: binding; details: SPR, 25° C.
Sequence of recombinant human CD40 (P25942 21-277): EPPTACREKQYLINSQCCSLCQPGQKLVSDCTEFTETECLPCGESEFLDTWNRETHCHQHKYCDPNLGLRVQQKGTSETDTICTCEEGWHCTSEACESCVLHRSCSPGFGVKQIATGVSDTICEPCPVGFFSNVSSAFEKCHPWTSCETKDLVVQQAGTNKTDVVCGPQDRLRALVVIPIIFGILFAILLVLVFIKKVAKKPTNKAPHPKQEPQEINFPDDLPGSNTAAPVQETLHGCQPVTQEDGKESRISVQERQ
Protocol: The binding analyses of recombinant CFZ533 were performed at 25° C. with HBS−EP+ as running buffer. A typical binding analysis cycle consisted of three steps: (i) capture of the antibody via ProteinA immobilized on the chip surface, (ii) binding of CD40 antigen to the captured anti-CD40 antibody, and (iii) regeneration of the ProteinA surface. To determine the kinetic rate constants of the antigen-antibody binding interactions, binding data were processed, double referenced with responses from blank injections. The binding curves were fitted locally using the 1:1 interaction model of the Biacore T100 Evaluation software to determine kinetic rate constants. The value for the equilibrium dissociation constant (KD) was calculated as the ratio of the rate constants kd/ka. All binding measurements were performed in two independent experiments.

[1] = test system: transplanted kidney grafts; test: Allograft biopsies scored by Chronic Allograft Damage Index (CADI); assay type: in vivo, human; details: final biopsy
Description: The quality of the graft was estimated using the Chronic Allograph Damage Index (CADI) (Isoniemi et al. 1992 and 1994), where scores of ≤1 reflects normal renal histology and higher scores correlate with poor long-term outcome (Hayry et al. 2004, Yilmaz et al. 2007, Yilmaz et al. 2003). Pristine renal histology was found in 3 of 5 patients on iscalimab (60%) and in none of the 7 treated with tacrolimus (0%). The average CADI was 1.60±0.60 for CFZ533 (n=5) vs. 5.14±0.80 for tacrolimus (n=7), (mean±SEM, p<0.01 using Student t)
A PoC Study in de Novo Renal Transplantation (CCFZ533X2101/NCT02217410) using CFZ533 was performed. […] Allograft biopsies were performed on a subset of study patients. A pathologist, blinded to therapy, reviewed and scored all biopsy slides using the established Banff criteria and calculated the chronic allograft damage index (CADI, Nickerson P et al., Legendre C et al., Seron D et al.,). A CADI of 1 or less was considered as ‘normal renal histology’. Two patients were excluded from the analysis, since they switched therapy after only 2 months. […] The average CADI at final biopsy was 1.6±0.6 for CFZ533 and 5.1±0.8 for tacrolimus, p<0.01.

human B cell line RI-1 = test: Internalization by image flow cytometry; assay type: cell-based; details: 3 hours at 37° C.
Protocol: Internalization of fluorescently tagged CFZ533 and rCD154 was assessed in vitro using the human B cell line RI-1 (Th'ng et al, 1987). CD40 dependence of CFZ533 internalization was assessed using a CD40 knockout RI-1 cell line. Internalization was assessed using an Amnis® image flow cytometer (Merck KHaA, Darnstadt) according to the manufacturer's instructions and data analyzed using ImageStream®^X software.
FIG. 8B. Relative internalization erode of CFZ533 and rCD154 under permissive conditions (non-permissive erode values subtracted). Each dot represents data from an individual experiment and the population mean is indicated as a horizontal red line. FIG. 8C. Representative images of individual CD40 expressing or CD40 knock-out RI-1 cells cultured with Alexa488 labeled CFZ533 for 3 hours at 37° C. In all experiments, cells were co-stained with AlexaFlour 647 labeled CD45 to demark the cell membrane.

## Rituximab: depleting anti-CD20 antibody [reference compound]
CD20pos B cells
  B cells eliminated in human whole blood: approximately 80%

## HCD122: parental antibody, wild-type IgG1 version of CFZ533 [reference compound]
Recombinant human CD40
  ka [1/Ms]: 2.84 ± 0.67 × 10^5 1/Ms
  kd [1/s]: 1.26 ± 0.03 × 10^−4 1/s

## C=CC[C@@H]1/C=C(\C)C[C@H](C)C[C@H](OC)[C@H]2O[C@@](O)(C(=O)C(=O)N3CCCC[C@H]3C(=O)O[C@H](/C(C)=C/[C@@H]3CC[C@@H](O)[C@H](OC)C3)[C@H](C)[C@@H](O)CC1=O)[C@H](C)C[C@@H]2OC [tacrolimus, reference compound]
[1]
  average CADI (mean±SEM): 5.14±0.80 and 5.1±0.8

B1: rCD154: recombinant human CD154, the CD40 ligand (protein)
chain: MQKGDQNPQIAAHVISEASSKTTSVLQWAEKGYYTMSNNLVTLENGKQLTVKRQGLYYIYAQVTFCSNREASSQAPFIASLCLKSPGRFERILLRAANTHSSAKPCGQQSIHLGGVFELQPGASVFVNVTDPSQVSHGTGFTSFGLLKL
Human B cell line RI-1
  Internalization by RI-1 B cells: internalized
